Legend:
[1] = biological target: SARS-CoV-1 RBD-5GS-1TD0 (SARS-CoV-1 | not stated); assay: SDS-PAGE
[2] = biological target: SARS-CoV-2 RBD-5GS-1TD0 (SARS-CoV-2 | not stated) (UniProt P0DTC2); assay: SDS-PAGE
[3] = biological target: SARS-CoV-2 RBD-5GS-1TD0 (SARS-CoV-2 | not stated) (UniProt P0DTC2); assay: SEC

| Substance | stoichiometry N [1] | stoichiometry N [2] | stoichiometry N [3] |
| --- | --- | --- | --- |
| SARS-CoV-1 RBD-5GS-1TD0 | 3 | – | – |
| SARS-CoV-2 RBD-5GS-1TD0 (from UniProt P0DTC2 330-532) | – | 3 | 3 |
